Patent US20030044418A1 (TEXAS A AND M UNIVERSITY SYSTEM UNIVERSITY, published 2003)

What was measured:
[1] = target: T1, fibrinogen (Fg) (human, UniProt P02671 20-629; P02675 31-491; P02679 27-437); assay: ELISA, increasing rSdrG(50-597) on immobilized Fg, anti-His-tag detection; apparent KD
T1 construct: Purified native Fg bought from Enzyme Research Labs, coated on microtiter wells (1 µg); also called human Fg; immobilized Fg
T1 sequence 1: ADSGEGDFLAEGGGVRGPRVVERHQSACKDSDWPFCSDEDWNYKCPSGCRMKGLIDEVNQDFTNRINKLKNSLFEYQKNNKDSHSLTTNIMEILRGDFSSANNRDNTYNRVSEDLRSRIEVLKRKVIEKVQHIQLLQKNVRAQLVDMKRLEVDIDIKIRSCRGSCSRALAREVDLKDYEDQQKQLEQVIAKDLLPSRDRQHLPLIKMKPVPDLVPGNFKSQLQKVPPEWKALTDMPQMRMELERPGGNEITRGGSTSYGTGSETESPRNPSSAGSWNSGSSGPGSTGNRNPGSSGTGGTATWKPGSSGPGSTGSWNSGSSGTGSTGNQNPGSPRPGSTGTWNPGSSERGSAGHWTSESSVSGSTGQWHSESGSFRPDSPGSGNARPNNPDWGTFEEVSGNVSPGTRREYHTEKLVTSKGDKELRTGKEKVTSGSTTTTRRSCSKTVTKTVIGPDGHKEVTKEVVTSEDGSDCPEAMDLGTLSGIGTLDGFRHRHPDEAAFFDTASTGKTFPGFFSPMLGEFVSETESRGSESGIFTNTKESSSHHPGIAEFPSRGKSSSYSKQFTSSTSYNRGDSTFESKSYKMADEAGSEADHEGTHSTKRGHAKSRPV
T1 sequence 2: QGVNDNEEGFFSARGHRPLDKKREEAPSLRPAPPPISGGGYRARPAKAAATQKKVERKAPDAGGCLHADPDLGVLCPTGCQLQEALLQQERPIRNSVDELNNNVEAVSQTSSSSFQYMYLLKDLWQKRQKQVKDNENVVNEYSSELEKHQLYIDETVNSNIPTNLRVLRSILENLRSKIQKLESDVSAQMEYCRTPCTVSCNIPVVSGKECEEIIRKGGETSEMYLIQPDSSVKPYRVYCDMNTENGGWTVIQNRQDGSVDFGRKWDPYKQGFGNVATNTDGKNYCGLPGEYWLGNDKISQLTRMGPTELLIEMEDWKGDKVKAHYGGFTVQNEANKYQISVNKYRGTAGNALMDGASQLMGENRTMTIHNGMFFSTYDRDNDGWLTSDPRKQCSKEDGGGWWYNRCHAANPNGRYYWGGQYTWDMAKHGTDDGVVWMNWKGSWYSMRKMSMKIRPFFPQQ
T1 sequence 3: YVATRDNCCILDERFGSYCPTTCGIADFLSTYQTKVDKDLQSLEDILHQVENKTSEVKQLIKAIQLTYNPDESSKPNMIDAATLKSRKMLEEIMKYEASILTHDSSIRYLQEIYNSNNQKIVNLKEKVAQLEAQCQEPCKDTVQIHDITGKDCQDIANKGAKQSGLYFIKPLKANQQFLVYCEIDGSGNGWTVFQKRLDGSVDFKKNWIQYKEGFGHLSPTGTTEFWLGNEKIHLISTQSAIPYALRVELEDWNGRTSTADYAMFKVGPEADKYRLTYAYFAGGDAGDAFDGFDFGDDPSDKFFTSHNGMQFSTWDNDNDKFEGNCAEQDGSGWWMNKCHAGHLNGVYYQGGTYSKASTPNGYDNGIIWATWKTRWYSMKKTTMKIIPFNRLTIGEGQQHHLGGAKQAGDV

[2] = target: T2, Aα chain of Fg (UniProt P02671 20-629); assay: Western ligand blot, biotin labeled rSdrG(50-597)
T2 construct: Chain of native Fg on a Western ligand blot
T2 sequence: T1 sequence 1

[3] = target: T3, thrombin digested Fg (human, UniProt P02671 36-629; P02675 45-491; P02679 27-437); assay: ELISA, Fg-coated wells pretreated with thrombin, biotin labeled rSdrG(50-597)
T3 construct: Fg coated on wells and treated with 1.0 NIH unit/ml thrombin for 30 min; also called thrombin-treated Fg; Fg treated with thrombin
T3 sequence 1: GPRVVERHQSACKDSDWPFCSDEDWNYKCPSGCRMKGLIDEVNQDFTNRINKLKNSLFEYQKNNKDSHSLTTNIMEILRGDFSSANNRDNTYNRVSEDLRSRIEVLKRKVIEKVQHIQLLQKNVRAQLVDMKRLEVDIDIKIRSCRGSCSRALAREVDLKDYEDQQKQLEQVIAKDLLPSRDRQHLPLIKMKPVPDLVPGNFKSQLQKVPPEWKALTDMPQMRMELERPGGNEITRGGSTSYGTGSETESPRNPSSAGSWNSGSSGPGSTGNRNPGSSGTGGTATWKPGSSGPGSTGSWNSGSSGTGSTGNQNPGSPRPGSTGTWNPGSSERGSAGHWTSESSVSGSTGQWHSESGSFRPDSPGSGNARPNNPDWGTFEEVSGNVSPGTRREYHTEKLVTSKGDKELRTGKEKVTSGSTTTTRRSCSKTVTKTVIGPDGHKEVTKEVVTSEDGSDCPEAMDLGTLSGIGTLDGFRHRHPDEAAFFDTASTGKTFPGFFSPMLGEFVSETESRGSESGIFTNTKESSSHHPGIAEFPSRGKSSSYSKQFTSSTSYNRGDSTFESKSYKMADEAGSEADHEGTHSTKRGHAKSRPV
T3 sequence 2: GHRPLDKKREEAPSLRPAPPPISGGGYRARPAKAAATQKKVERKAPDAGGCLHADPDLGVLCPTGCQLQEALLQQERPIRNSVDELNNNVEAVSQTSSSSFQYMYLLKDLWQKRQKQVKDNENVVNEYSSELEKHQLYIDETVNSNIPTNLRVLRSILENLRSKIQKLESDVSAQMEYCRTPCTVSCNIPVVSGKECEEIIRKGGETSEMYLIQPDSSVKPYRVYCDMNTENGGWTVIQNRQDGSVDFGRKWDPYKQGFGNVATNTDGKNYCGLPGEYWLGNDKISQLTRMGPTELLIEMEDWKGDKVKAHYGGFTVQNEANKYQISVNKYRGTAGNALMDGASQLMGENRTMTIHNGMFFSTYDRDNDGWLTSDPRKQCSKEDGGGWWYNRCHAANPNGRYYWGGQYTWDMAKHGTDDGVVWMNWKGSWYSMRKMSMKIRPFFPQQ
T3 sequence 3: T1 sequence 3

[4] = target: T4, Fg treated with contortrixobin (human, UniProt P02671 20-629; P02675 45-491; P02679 27-437); assay: ELISA of Example 2, Fg-coated wells pretreated with protease, biotin labeled rSdrG(50-597)
T4 construct: Fg coated on wells and treated for 30 min at room temperature with contortrixobin from Agkistrodon contortrix contortrix; also called contortrixobin-treated Fg
T4 sequence 1: T1 sequence 1
T4 sequence 2: T3 sequence 2
T4 sequence 3: T1 sequence 3

B1: rSdrG(50-597) (other)
chain: HHHHHHAEENTVQDVKDSNMDDELSDSNDQSSNEEKNDVINNSQSINTDDDNQIKKEETNSNDAIENRSKDITQSTTNVDENEATFLQKTPQDNTQLKEEVVKEPSSVESSNSSMDTAQQPSHTTINSEASIQTSDNEENSRVSDFANSKIIESNTESNKEENTIEQPNKVREDSITSQPSSYKNIDEKISNQDELLNLPINEYENKVRPLSTTSAQPSSKRVTVNQLAAEQGSNVNHLIKVTDQSITEGYDDSDGIIKAHDAENLIYDVTFEVDDKVKSGDTMTVNIDKNTVPSDLTDSFAIPKIKDNSGEIIATGTYDNTNKQITYTFTDYVDKYENIKAHLKLTSYIDKSKVPNNNTKLDVEYKTALSSVNKTITVEYQKPNENRTANLQSMFTNIDTKNHTVEQTIYINPLRYSAKETNVNISGNGDEGSTIIDDSTIIKVYKVGDNQNLPDSNRIYDYSEYEDVTNDDYAQLGNNNDVNINFGNIDSPYIIKVISKYDPNKDDYTTIQQTVTMQTTINEYTGEFRTASYDNTIAFSTSSGQGQGDLPPE
notes: Used biotin labeled in the Western ligand blots and in the ELISAs on protease-treated Fg; also called recombinant SdrG A-region; recombinant form of the N-terminal A-region of SdrG
[1]
  Kd: 90 nM
[2]
  binding result: no binding
[3]
  binding result: no binding (tested: 25-1000 nM)
[4]
  binding result: no binding (tested: 25-1000 nM)
